Experimental data taken from publication PMC4399498 (Nature communications, 2014).

Columns and labels:
KdpE-E216A = target: T1, KdpE-E216A (Escherichia coli, UniProt P21866 1-225, E216A); assay: fluorescence anisotropy
T1 sequence: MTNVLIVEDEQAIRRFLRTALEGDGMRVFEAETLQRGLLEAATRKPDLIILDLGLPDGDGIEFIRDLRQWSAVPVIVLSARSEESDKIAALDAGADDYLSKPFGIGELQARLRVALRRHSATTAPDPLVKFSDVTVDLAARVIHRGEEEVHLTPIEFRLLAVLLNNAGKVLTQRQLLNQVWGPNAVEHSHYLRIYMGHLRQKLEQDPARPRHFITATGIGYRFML

KdpE = target: T2, KdpE (Escherichia coli, UniProt P21866 1-225); assay: fluorescence anisotropy
T2 sequence: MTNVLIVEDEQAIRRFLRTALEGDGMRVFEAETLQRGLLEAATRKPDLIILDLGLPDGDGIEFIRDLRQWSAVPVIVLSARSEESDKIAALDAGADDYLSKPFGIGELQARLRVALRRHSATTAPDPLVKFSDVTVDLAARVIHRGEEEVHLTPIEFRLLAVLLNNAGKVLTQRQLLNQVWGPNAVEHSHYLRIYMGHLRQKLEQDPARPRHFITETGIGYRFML

B1: 24-bp KdpE site DNA, TAMRA (anisotropy) (dsDNA)
DNA 1: CATTTTTATACTTTTTTTACACCC
DNA 2: GGGTGTAAAAAAAGTATAAAAATG
Kd (KdpE-E216A): 3.5 ± 0.5 nM | Kd (KdpE): 30 ± 4 nM
